Results reported in patent US20220403009A1 (IGM BIOSCIENCES, published 2022).
Positions count from the first letter of the chain named. Where two headings read alike, the source gives them in different places.

Legend:
[1] = target: T1, SARS-CoV-2 spike protein on live SARS-CoV-2 virus (SARS-CoV-2, UniProt P0DTC2 13-1273); experiment: cell-based or functional assay
[2] = target: T2, SARS-CoV-2 spike protein on pseudovirus (SARS-CoV-2, UniProt P0DTC2 13-1273); experiment: cell-based or functional assay
[3] = target: T1, SARS-CoV-2 spike protein on live …; experiment: cell-based or functional assay; remark: listed apart in the source
[4] = target: recombinant SARS-CoV-2 spike (S) protein trimer (SARS-CoV-2, UniProt P0DTC2 13-1213)
[5] = target: SARS-CoV-1 spike protein on HIV-based pseudovirus (SARS-CoV, UniProt P59594 14-1255); experiment: cell-based or functional assay
[6] = target: T2, SARS-CoV-2 spike protein on pseudovirus; experiment: cell-based or functional assay; remark: listed apart in the source

B1: Ab4 IgM (antibody)
VH: QVQLVESGGGVVQPGRSLRLSCAASGFTFSNYAMYWVRQAPGKGLEWVAVISYDGSNKYYADSVKGRFTISRDNSKNTLYLQMNSLRTEDTAVYYCASGSDYGDYLLVYWGQGTLVTVSS
VL: QSALTQPASVSGSPGQSITISCTGTSSDVGGYNYVSWYQQHPGKAPKLMIYDVSKRPSGVSNRFSGSKSGNTASLTISGLQSEDEADYYCNSLTSISTWVFGGGTKLTVL
chain: not shown
IgM Fold Improvement Over IgG1 [1]: 59 fold | IgM IC50, SARS-CoV-2 live virus microneutralization [1]: 0.0031 µg/mL | IgM Fold Improvement Over IgG1 [2]: 31 fold | IgM IC50, SARS-CoV-2 pseudovirus neutralization [2]: 0.058 ng/mL

B2: Ab12 IgM (antibody)
VH: not shown
VL: B1 VL with S82A, A86G, N91S, L93Y, I96S
chain: not shown
IgM Fold Improvement Over IgG1 [3]: 330 fold | IgM IC50, SARS-CoV-2 live virus microneutralization [3]: 0.0081 µg/mL | IgM Fold Improvement Over IgG1 [2]: 180 fold | IgM IC50, SARS-CoV-2 pseudovirus neutralization [2]: 0.42 ng/mL

B3: Ab12 IgG (antibody, V domains shown)
VH: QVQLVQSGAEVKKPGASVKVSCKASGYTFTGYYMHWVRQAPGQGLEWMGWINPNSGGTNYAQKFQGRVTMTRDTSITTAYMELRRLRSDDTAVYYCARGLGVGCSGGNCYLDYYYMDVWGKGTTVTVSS
VL: B1 VL with S82A, A86G, N91S, L93Y, I96S
IgG IC50, SARS-CoV-2 live virus microneutralization [3]: 2.7 µg/mL | IgG IC50, SARS-CoV-2 pseudovirus neutralization [2]: 0.077 µg/mL

B4: Ab4 IgG (antibody, V domains shown)
VH: B1 VH
VL: B1 VL
IgG IC50, SARS-CoV-2 live virus microneutralization [1]: 0.18 µg/mL | IgG IC50, SARS-CoV-2 pseudovirus neutralization [2]: 0.0018 µg/mL

B5: Ab8 IgM (antibody)
VH: EVQLVESGGGLIQPGGSLRLSCAASGFTVSRNYMNWVRQAPGKGLEWVSVIYSGGSTFYADSVKGRFTISRDNSKNTLYLQMNSLRAEDTAVYYCARDASSYGIDWGQGTLVTVSS
VL: not shown
chain: not shown
IgM Fold Improvement Over IgG1 [1]: 3.3 fold | IgM IC50, SARS-CoV-2 live virus microneutralization [1]: 0.028 µg/mL | IgM IC50, SARS-CoV-2 pseudovirus neutralization [2]: 2.7 ng/mL

B6: Ab8 IgG (antibody, V domains shown)
VH: B5 VH
VL: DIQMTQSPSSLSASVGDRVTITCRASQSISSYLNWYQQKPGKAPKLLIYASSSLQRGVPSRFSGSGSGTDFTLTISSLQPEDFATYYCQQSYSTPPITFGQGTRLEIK
IgG IC50, SARS-CoV-2 live virus microneutralization [1]: 0.093 µg/mL | IgG IC50, SARS-CoV-2 pseudovirus neutralization [2]: 0.0019 µg/mL

B7: Ab11 IgM (antibody)
VH: QVQLVQSGAEVKKPGSSVKVSCKASGGTFSSYAISWVRQAPGQGLEWMGGNIPIFGTANYAQKFQGRVTITADESTSTAYMELSSLRSEDTAVYYCARGVGYRGVIPLNWFDPWGQGTVVTVSS
VL: EIVMTQSPATLSVSPGERATLSCRASQSVSSDLAWYQHKPGQAPRLLIYGASTRATGIPVRFSGSGSGTEFTLTISSLQSEDFAVYYCQQYNNWPPFTFGGGTKVEIK
chain: not shown
IgM Fold Improvement Over IgG1 [3]: > 870 fold | IgM IC50, SARS-CoV-2 live virus microneutralization [3]: 0.057 µg/mL | IgM Fold Improvement Over IgG1 [2]: 86 fold | IgM IC50, SARS-CoV-2 pseudovirus neutralization [2]: 3.7 ng/mL

B8: Ab11 IgG (antibody, V domains shown)
VH: B7 VH
VL: B7 VL
IgG IC50, SARS-CoV-2 live virus microneutralization [3]: > 50 µg/mL | IgG IC50, SARS-CoV-2 pseudovirus neutralization [2]: 0.32 µg/mL

B9: Ab7 IgM (antibody)
VH: EVQLVESGGGLVQPGGSLRLSCAVSGFTVSSNYMSWVRQAPGKGLEWVSVIYTGGGTYYADSVKGRFTISRDNSKNTLYLQMNTLRAEDTTVYYCARGDGSYYRAFDYWGQGTLVTVSS
VL: DIQMTQSPSSLSASVGDRVTITCRASQSISNYLNWYHQKPGKAPKLLIYAASSLQSGVPSRFSGSGSGTDFTLTISSLQPEDFATYYCQQSYSPPPTFGPGTKVEIK
chain: not shown
IgM Fold Improvement Over IgG1 [1]: 19 fold | IgM IC50, SARS-CoV-2 live virus microneutralization [1]: 0.0016 µg/mL | IgM Fold Improvement Over IgG1 [2]: 8.8 fold | IgM IC50, SARS-CoV-2 pseudovirus neutralization [2]: 0.042 ng/mL

B10: Ab7 IgG (antibody, V domains shown)
VH: B9 VH
VL: B9 VL
IgG IC50, SARS-CoV-2 live virus microneutralization [1]: 0.03 µg/mL | IgG IC50, SARS-CoV-2 pseudovirus neutralization [2]: 0.00037 µg/mL

B11: Ab10 IgM (antibody)
VH: QITLKESGPTLVKPTQTLTLTCTFSGFSLSTSGVGVGWIRQPPGKALEWLALIYWDDDKRYSPSLKSRLTITKDTSKNQVVLTMTNMDPVDTATYYCAHHKIERIFDYWGQGTLVTVSS
VL: QSALAQPASVSGSPGQSITISCTGTSSDVGAYNYVSWYQQHPGKAPKLMIYDVSKRPSGVSNRFSGSKSGNTASLTISGLQAEDEADYYCSSYTTSSTVFGGGTKLTVL
chain: not shown
EC50 (read off the curve) [4]: ~0.3 nM | IgM Fold Improvement Over IgG1 [3]: 390 fold | IgM IC50, SARS-CoV-2 live virus microneutralization [3]: 0.0012 µg/mL | IgM Fold Improvement Over IgG1 [2]: 64 fold | IgM IC50, SARS-CoV-2 pseudovirus neutralization [2]: 0.092 ng/mL

B12: Ab10 IgG (antibody, V domains shown)
VH: B11 VH
VL: B11 VL
EC50 (read off the curve) [4]: ~1 nM | IgG IC50, SARS-CoV-2 live virus microneutralization [3]: 0.47 µg/mL | IgG IC50, SARS-CoV-2 pseudovirus neutralization [2]: 0.0059 µg/mL

B13: CR3022 IgA2m2 + J (antibody)
VH: QMQLVQSGTEVKKPGESLKISCKGSGYGFITYWIGWVRQMPGKGLEWMGIIYPGDSETRYSPSFQGQVTISADKSINTAYLQWSSLKASDTAIYYCAGGSGISTPMDVWGQGTTVTVSS
VL: not shown
chain: not shown
IC50, SARS-CoV-1 pseudovirus neutralization [5]: 2.3 µg/mL | IC50, SARS-CoV-2 pseudovirus neutralization [6]: > 100000 µg/mL

B14: CR3022 IgA1 + J (antibody)
VH: B13 VH
VL: not shown
chain: not shown
IC50, SARS-CoV-1 pseudovirus neutralization [5]: 1.9 µg/mL | IC50, SARS-CoV-2 pseudovirus neutralization [6]: > 100000 µg/mL

B15: CR3022 IgM + J (antibody)
VH: B13 VH
VL: not shown
chain: not shown
IC50, SARS-CoV-1 pseudovirus neutralization [5]: 0.47 µg/mL | IC50, SARS-CoV-2 pseudovirus neutralization [6]: > 100000 µg/mL

B16: Ab1 IgM (antibody)
VH: EVQLVESGGGLVQPGGSLRLSCAASGFTVSSNYMSWVRQAPGKGLEWVSVIYSGGSTFYADSVKGRFTISRDNSMNTLFLQMNSLRAEDTAVYYCARVLPMYGDYLDYWGQGTLVTVSS
VL: not shown
chain: not shown
IgM Fold Improvement Over IgG1 [1]: 10 fold | IgM IC50, SARS-CoV-2 live virus microneutralization [1]: 0.013 µg/mL | IgM Fold Improvement Over IgG1 [2]: 67 fold | IgM IC50, SARS-CoV-2 pseudovirus neutralization [2]: 0.15 ng/mL

B17: Ab1 IgG (antibody, V domains shown)
VH: B16 VH
VL: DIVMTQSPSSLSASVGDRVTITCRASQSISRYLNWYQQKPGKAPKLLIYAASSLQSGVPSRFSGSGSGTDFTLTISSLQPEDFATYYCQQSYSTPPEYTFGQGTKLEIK
IgG IC50, SARS-CoV-2 live virus microneutralization [1]: 0.13 µg/mL | IgG IC50, SARS-CoV-2 pseudovirus neutralization [2]: 0.01 µg/mL

B18: Ab3 IgM (antibody)
VH: QVQLVESGGGLVKPGGSLRLSCAASGFTFSDYYMSWIRQAPGKGLEWVSYITYSGSTIYYADSVKGRFTISRDNAKSSLYLQMNSLRAEDTAVYYCARDRGTTMVPFDYWGQGTLVTVSS
VL: DIQMTQSPSSLSASVGDRVTITCQASQDITNYLNWYQQKPGKAPKLLIYAASNLETGVPSRFSGSGSGTDFTFTISGLQPEDIATYYCQQYDNLPLTFGGGTKVEIK
chain: not shown
IgM IC50, SARS-CoV-2 live virus microneutralization [1]: 0.0038 µg/mL | IgM IC50, SARS-CoV-2 pseudovirus neutralization [2]: 0.11 ng/mL

B19: Ab3 IgG (antibody, V domains shown)
VH: B18 VH
VL: B18 VL
IgG IC50, SARS-CoV-2 pseudovirus neutralization [2]: 0.00057 µg/mL
